Laboratory results as given in the supplement of paper PMC10567573.

B1: FEM1A (parent)
chain: PCCSSSPEEPLNGESYESCCPTSR
B2: FBXO3 (parent)
chain: FIDTYSDVGRYIDHYAAIKKAWDD

Variants of: B1
Experiment: protein stability index of a GFP-peptide fusion (GPS, HEK-293T) (PSI 1-6); higher = more stable
Settings: c terminus: a fixed tail appended
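Also: lentivirally expressed fusions sorted by FACS into six bins by GFP to DsRed ratio, PSI derived from sequencing read proportions per bin multiplied by bin number.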

| Variant | protein stability index |
| --- | --- |
| S4W | 3.85 |
| S4E | 3.87 |
| S4D | 4.42 |
| S4K | 3.65 |
| S4H | 4.21 |
| S4M | 3.19 |
| P1I | 3.97 |
| P1G | 4.6 |
| P1W | 2.77 |
| P1F | 3.17 |
| P1K | 2.47 |
| P1C | 1.83 |
| P1Q | 3.95 |
| P1A | 4.21 |
| P1L | 3.69 |
| P1Y | 3.26 |
| P1T | 3.6 |
| P1V | 3.84 |
| P1M | 3.67 |
| P1H | 3.85 |
| P1N | 3.96 |
| P1D | 4.55 |

| Variant | protein stability index |
| --- | --- |
| P1R | 3.47 |
| P1S | 3.54 |
| P1E | 4.44 |
| E8M | 2.48 |
| E8R | 2.88 |
| E8Q | 3.4 |
| E8V | 2.38 |
| E8G | 3.06 |
| E8H | 3.33 |
| E8C | 3.45 |
| E8K | 2.69 |
| E8A | 2.87 |
| E8L | 2.81 |
| E8I | 3.06 |
| E8W | 1.63 |
| E8Y | 2.65 |
| E8T | 3.03 |
| E8N | 3.35 |
| E8F | 2.37 |
| E8P | 3.47 |
| E8D | 3.51 |

Variants of: B2
Experiment: as above
Settings: c terminus: a fixed tail appended

| Variant | protein stability index |
| --- | --- |
| K19D | 2.46 |
| K19S | 1.02 |
| K19Q | 2.07 |
| K19M | 3.18 |
| K19P | 1.74 |
| K19W | 2.34 |
| K19Y | 1.64 |
| K19F | 1.84 |
| K19E | 1.34 |
| K19R | 1.16 |
| K19H | 2.68 |
| K19C | 1.55 |
| K19G | 1.91 |
| K19T | 2.38 |
| K19A | 1.37 |
| K19V | 1.98 |
| K19L | 1.92 |
| K19N | 1.88 |
| K19I | 2.39 |
| K20T | 1.61 |
| K20Y | 2.08 |
| K20V | 1.44 |
| K20A | 2.16 |
| K20S | 1.54 |
| K20G | 1.81 |

| Variant | protein stability index |
| --- | --- |
| K20D | 1.74 |
| K20E | 2.29 |
| K20M | 2.49 |
| K20R | 1.67 |
| K20N | 2.76 |
| K20C | 2.19 |
| K20L | 1.54 |
| K20F | 2.08 |
| K20Q | 1.68 |
| K20W | 2.86 |
| K20P | 2.15 |
| K20H | 1.7 |
| K20I | 2.59 |
| D24I | 2.86 |
| D24S | 1.44 |
| D24A | 2.83 |
| D24V | 2.6 |
| D24Y | 2.19 |
| D24H | 2.7 |
| D24K | 1.58 |
| D24G | 1.61 |
| D24W | 2.07 |
| D24M | 1.82 |
| D24R | 1.99 |
| D24C | 1.32 |

| Variant | protein stability index |
| --- | --- |
| D24P | 2.28 |
| D24L | 1.79 |
| D24Q | 2.39 |
| D24T | 2.51 |
| D24F | 1.67 |
| D24E | 2.4 |
| D24N | 1.54 |
| W22S | 1.75 |
| W22G | 1.85 |
| W22V | 1.61 |
| W22N | 1.68 |
| W22T | 1.95 |
| W22E | 2.1 |
| W22P | 1.69 |
| W22L | 2.29 |
| W22M | 1.64 |
| W22Q | 1.26 |
| W22Y | 2.3 |
| W22K | 3 |
| W22A | 2.05 |
| W22I | 2.1 |
| W22F | 1.39 |
| W22H | 2.02 |
| W22C | 1.95 |
| W22R | 1.86 |

| Variant | protein stability index |
| --- | --- |
| W22D | 2.05 |
| D23T | 1.97 |
| D23H | 1.81 |
| D23G | 1.35 |
| D23P | 2.1 |
| D23Q | 1.44 |
| D23F | 1.87 |
| D23A | 1.74 |
| D23M | 2.56 |
| D23W | 3.21 |
| D23I | 3.3 |
| D23V | 1.48 |
| D23E | 2.31 |
| D23Y | 2.04 |
| D23R | 1.72 |
| D23N | 2.29 |
| D23L | 1.61 |
| D23C | 2.82 |
| D23S | 1.64 |
| D23K | 1.7 |
| I18R | 1.7 |
| I18T | 2.24 |
| I18Y | 1.31 |
| I18W | 1.74 |
| I18P | 1.96 |

| Variant | protein stability index |
| --- | --- |
| I18N | 1.46 |
| I18S | 2.13 |
| I18M | 2.16 |
| I18V | 2.16 |
| I18Q | 1.54 |
| A21S | 2.12 |
| A21Y | 1.85 |
| A21R | 1.96 |
| A21K | 1.88 |
| A21I | 2.48 |
| A21Q | 1.82 |
| A21H | 1.61 |
| A21T | 2.23 |
| A21F | 1.96 |
| A21L | 1.72 |
| A21M | 3.02 |
| A21G | 3.18 |
| A21W | 1.7 |
| A21V | 1.22 |
| A21D | 3.43 |
| A21C | 1.82 |
| A21E | 1.88 |
| A21N | 2 |
| A21P | 1.97 |
